Blank lines part the entries; values can stand above or below the molecule they belong to.
How the values were obtained:
[1] = target: CD47 on the surface of tumor cells (Raji cells, Jurkat cells, A549 cells) (human) (UniProt Q08722); assay: flow cytometry on A549 cells
[2] = target: CD47 on the surface of tumor cells (Raji cells, Jurkat cells, A549 cells) (human) (UniProt Q08722); assay: flow cytometry on Raji cells
[3] = target: CD47 on the surface of tumor cells (Raji cells, Jurkat cells, A549 cells) (human) (UniProt Q08722); assay: flow cytometry on Jurkat cells
[4] = target: Biotin-Fc-CD47 (Homo sapiens (Human)) (UniProt Q08722); assay: competition ELISA: blocks Biotin-Fc-CD47 binding to coated SIRPα-His
[5] = target: CD47-FITC (Homo sapiens (Human)) (UniProt Q08722); assay: flow cytometry of the wild domain control with the same gate as the library panel above it (CD47-FITC in the text, x axis printed APC-A), first panel, under the 3% panel
[6] = target: CD47-FITC (Homo sapiens (Human)) (UniProt Q08722); assay: flow cytometry of the wild domain control with the same gate as the library panel above it (CD47-FITC in the text, x axis printed APC-A), second panel, under the 4.9% panel
[7] = target: CD47-FITC (Homo sapiens (Human)) (UniProt Q08722); assay: flow cytometry of the wild domain control with the same gate as the library panel above it (CD47-FITC in the text, x axis printed APC-A), third panel, under the 12.5% panel

EC50 [1]: 1 µg/mL
maximum fluorescence intensity [1]: 60
EC50 [2]: 0.0404 µg/mL
maximum fluorescence intensity [2]: 600
EC50 [3]: 0.0539 µg/mL
maximum fluorescence intensity [3]: 3000
IC50 [4]: 494 µg/mL
Molecule: TTI-621 (Fc fusion)

percent of cells in gate P2 [5]: 1.3%
percent of cells in gate P2 [6]: 0%
percent of cells in gate P2 [7]: 0%
B1: Wild domain control (receptor, part only; not given: display vector transmembrane region, not shown: another chain or arm of the molecule; large carriers; small tags and cut ends)
chain: ELQVIQPDKSVLVAAGETATLRCTATSLIPVGPIQWFRGAGPGRELIYNQKEGHFPRVTTVSDLTKRNNMDFSIRIGNITPADAGTYYCVKFRKGSPDDVEFKSGAGTELSVRAKPS
modifications: displayed on the CHO cell surface through the pTM transmembrane region (no letters given); the pTM signal peptide is left off as cleaved

Reference: patent US20210171593A1
